According to PMC9427776, “TTYH family members form tetrameric complexes at the cell membrane” (Communications Biology, 2022):
“And” between values parts separate entries of the source, which are not always exact repeats. Equal entries are not always repeated. Each block holds one molecule with its values, some of them ahead of it.

Key:
[1] = molecular target: mTTYH3 ECD1-T4L-ECD2 (mouse | not stated) (UniProt Q6P5F7); assay: cross-linking; secreted protein from clarified insect cell medium, DSS at 0, 10, 50, 100, 200, 2000 uM; western blot
[2] = molecular target: the molecule itself; assay: native gel or EMSA; Blue-Native PAGE of HEK 293 lysates in 0.05% (mTTYH1) or 0.1% (mTTYH3) DDM, 50 mM NaCl, 20 mM Tris-HCl pH 7.5; anti-FLAG western blot
[3] = molecular target: the molecule itself; assay: cross-linking; in situ on adherent HEK 293 cells with membrane-impermeable BS3 (0, 10, 50, 100, 200, 2000 uM), 1 h at room temperature; lysis in 1% DDM; SDS-PAGE and anti-FLAG western blot
[4] = molecular target: the molecule itself; assay: SEC; FSEC of HEK 293 cells solubilised in 1% DDM, Superdex 200 Increase, 150 mM NaCl, 50 mM Tris-HCl pH 7.5, 1 mM DDM; EGFP fluorescence; also after 10 min at 20-80 C (FSEC-TS) or with 20 mM 2-ME, both of which shift the population toward dimers
[5] = molecular target: the molecule itself; assay: single-molecule subunit counting (photobleaching steps of EGFP, TIRFM); EGFP fusions at low density in the plasma membrane of living Xenopus laevis oocytes, room temperature; bleaching steps counted by hand, fit to a binomial distribution (p = 0.7)
[6] = molecular target: the molecule itself; assay: SEC-MALS; purified mTTYH1-GFP-8xHis, 50 uL at 1.18 mg/mL, Superdex 200 Increase, 20 mM Tris pH 7.5, 150 mM NaCl, 0.3 mM DDM; protein conjugate analysis

stoichiometry N [1]: 4
Molecule: mTTYH3 ECD1-T4L-ECD2 (from UniProt Q6P5F7 107-209; Q6P5F7 260-386) (domain or fragment)

B1: FLAG-tagged mTTYH1 (natural protein, mouse, UniProt Q9D3A9 1-450, looked up)
chain: MGAPPGYRPSAWVHLLHQLPRADFQLRPVPSGFAPRDQEYQQALLLVAALAGLGLGLSLIFIAVYLIRFCCCRPPEPHGAKSPPPGGGCVTWSCIAALLVGCAGIGIGFYGNSETSDGVSQLSSALLHANHTLSTIDDVVLETVERLGEAVKTELTTLEEVLSVRMELVAATRGARRQAEAAAQYLQGLAFWQGVSLSPVQVAEDVTFVEEYRWLAYVLLLLLVLLVCLFTLLGLAKQSKWLVVVMTAMSLLVLVLSWGSMGLEAATAVGLSDFCSNPDTYVLNLTQEETGLSSDILSYYFLCNQAVSNPFQQRLTLSQRALASIHSQLQGLEREAIPQFSAAQKPLLSLEETLNVTERSFHQLVALLHCRSLHKDYGSALRGLCEDALEGLLFLMLFSLLSAGALATTLCSLPRAWALFPPSDDYDDTDDDDPFNPQESKRFVQWQSSI
notes: mouse Tweety homolog 1 (mTTYH1), intact protein; so the FLAG is probably C-terminal; also called mouse Tweety homolog 1; source: HEK 293 cells (HEK293T), transiently transfected; cross-linked on the cells or in DDM lysate
stoichiometry N [2]: 2 | stoichiometry N [3]: 4

B2: mTTYH1-EGFP (HEK 293, pEGFP-N1) (natural protein, mouse, UniProt Q9D3A9 1-450, looked up)
chain: MGAPPGYRPSAWVHLLHQLPRADFQLRPVPSGFAPRDQEYQQALLLVAALAGLGLGLSLIFIAVYLIRFCCCRPPEPHGAKSPPPGGGCVTWSCIAALLVGCAGIGIGFYGNSETSDGVSQLSSALLHANHTLSTIDDVVLETVERLGEAVKTELTTLEEVLSVRMELVAATRGARRQAEAAAQYLQGLAFWQGVSLSPVQVAEDVTFVEEYRWLAYVLLLLLVLLVCLFTLLGLAKQSKWLVVVMTAMSLLVLVLSWGSMGLEAATAVGLSDFCSNPDTYVLNLTQEETGLSSDILSYYFLCNQAVSNPFQQRLTLSQRALASIHSQLQGLEREAIPQFSAAQKPLLSLEETLNVTERSFHQLVALLHCRSLHKDYGSALRGLCEDALEGLLFLMLFSLLSAGALATTLCSLPRAWALFPPSDDYDDTDDDDPFNPQESKRFVQWQSSI
notes: mouse Tweety homolog 1 (mTTYH1), intact protein; also called EGFP-fused mTTYH1; source: HEK 293 cells, transiently transfected, detergent-solubilised lysate; not shown: EGFP, C-terminal, kept
stoichiometry N [4]: 4 and 2

B3: mTTYH1-EGFP (Xenopus oocytes, pGH19) (natural protein, mouse, UniProt Q9D3A9 1-450, looked up)
chain: MGAPPGYRPSAWVHLLHQLPRADFQLRPVPSGFAPRDQEYQQALLLVAALAGLGLGLSLIFIAVYLIRFCCCRPPEPHGAKSPPPGGGCVTWSCIAALLVGCAGIGIGFYGNSETSDGVSQLSSALLHANHTLSTIDDVVLETVERLGEAVKTELTTLEEVLSVRMELVAATRGARRQAEAAAQYLQGLAFWQGVSLSPVQVAEDVTFVEEYRWLAYVLLLLLVLLVCLFTLLGLAKQSKWLVVVMTAMSLLVLVLSWGSMGLEAATAVGLSDFCSNPDTYVLNLTQEETGLSSDILSYYFLCNQAVSNPFQQRLTLSQRALASIHSQLQGLEREAIPQFSAAQKPLLSLEETLNVTERSFHQLVALLHCRSLHKDYGSALRGLCEDALEGLLFLMLFSLLSAGALATTLCSLPRAWALFPPSDDYDDTDDDDPFNPQESKRFVQWQSSI
notes: mouse Tweety homolog 1 (mTTYH1), intact protein; also called EGFP-fused mTTYH1; source: Xenopus laevis oocytes injected with about 1 ng cRNA, at the plasma membrane; not shown: EGFP, C-terminal, kept
stoichiometry N [5]: 4

B4: mTTYH1-GFP-8xHis (natural protein, mouse, UniProt Q9D3A9 1-450, looked up)
chain: MGAPPGYRPSAWVHLLHQLPRADFQLRPVPSGFAPRDQEYQQALLLVAALAGLGLGLSLIFIAVYLIRFCCCRPPEPHGAKSPPPGGGCVTWSCIAALLVGCAGIGIGFYGNSETSDGVSQLSSALLHANHTLSTIDDVVLETVERLGEAVKTELTTLEEVLSVRMELVAATRGARRQAEAAAQYLQGLAFWQGVSLSPVQVAEDVTFVEEYRWLAYVLLLLLVLLVCLFTLLGLAKQSKWLVVVMTAMSLLVLVLSWGSMGLEAATAVGLSDFCSNPDTYVLNLTQEETGLSSDILSYYFLCNQAVSNPFQQRLTLSQRALASIHSQLQGLEREAIPQFSAAQKPLLSLEETLNVTERSFHQLVALLHCRSLHKDYGSALRGLCEDALEGLLFLMLFSLLSAGALATTLCSLPRAWALFPPSDDYDDTDDDDPFNPQESKRFVQWQSSI
modifications: N-glycosylated (HexNAc at Asn; sites not given)
notes: mouse Tweety homolog 1 (mTTYH1), intact protein; also called purified mTTYH1-GFP; intact mTTYH1-GFP; not shown: EGFP, C-terminal, kept; His8, C-terminal, kept
stoichiometry N [6]: 4 and 2

B5: EGFP fusion of KCNH1 (natural protein, UniProt O95259 1-989, looked up)
chain: MTMAGGRRGLVAPQNTFLENIVRRSNDTNFVLGNAQIVDWPIVYSNDGFCKLSGYHRAEVMQKSSTCSFMYGELTDKDTIEKVRQTFENYEMNSFEILMYKKNRTPVWFFVKIAPIRNEQDKVVLFLCTFSDITAFKQPIEDDSCKGWGKFARLTRALTSSRGVLQQLAPSVQKGENVHKHSRLAEVLQLGSDILPQYKQEAPKTPPHIILHYCVFKTTWDWIILILTFYTAILVPYNVSFKTRQNNVAWLVVDSIVDVIFLVDIVLNFHTTFVGPAGEVISDPKLIRMNYLKTWFVIDLLSCLPYDVINAFENVDEVSAFMGDPGKIGFADQIPPPLEGRESQGISSLFSSLKVVRLLRLGRVARKLDHYIEYGAAVLVLLVCVFGLAAHWMACIWYSIGDYEIFDEDTKTIRNNSWLYQLAMDIGTPYQFNGSGSGKWEGGPSKNSVYISSLYFTMTSLTSVGFGNIAPSTDIEKIFAVAIMMIGSLLYATIFGNVTTIFQQMYANTNRYHEMLNSVRDFLKLYQVPKGLSERVMDYIVSTWSMSRGIDTEKVLQICPKDMRADICVHLNRKVFKEHPAFRLASDGCLRALAMEFQTVHCAPGDLIYHAGESVDSLCFVVSGSLEVIQDDEVVAILGKGDVFGDVFWKEATLAQSCANVRALTYCDLHVIKRDALQKVLEFYTAFSHSFSRNLILTYNLRKRIVFRKISDVKREEEERMKRKNEAPLILPPDHPVRRLFQRFRQQKEARLAAERGGRDLDDLDVEKGNVLTEHASANHSLVKASVVTVRESPATPVSFQAASTSGVPDHAKLQAPGSECLGPKGGGGDCAKRKSWARFKDACGKSEDWNKVSKAESMETLPERTKASGEATLKKTDSCDSGITKSDLRLDNVGEARSPQDRSPILAEVKHSFYPIPEQTLQATVLEVRHELKEDIKALNAKMTNIEKQLSEILRILTSRRSSQSPQELFEISRPQSPESERDIFGAS
notes: KCNH1, voltage-gated K+ channel; Positive control of the subunit counting; also called EGFP-fused KCNH1; source: Xenopus laevis oocytes injected with 1 ng cRNA, at the plasma membrane
stoichiometry N [5]: 4

B6: mTTYH3-EGFP (HEK 293, pEGFP-N1) (natural protein, mouse, UniProt Q6P5F7 1-524, looked up)
chain: MAGVSYAAPWWVSLLHRLPHFDLRWEATSSQFRPEDADYQQALLLLGATALACLALDLLFLLFYSFWLCCRRRKTDEHLDADCCCTAWCVIITTLVCSAGIAVGFYGNGETSDGIHRATYSLRHANRTVAGVQDRVWDTAAALNRTAEPNLQSLERQLAGRQEPLRAVQRLQTLLGTLLGYTAAIPFWRNPGVSLEVLAEQVDLYDWYRWLGYLGLLLLDVIICLLVLVGLIRSSKGILVGVCLLGVLALVISWGALGLELAVSVGSSDFCVDPDTFVTKMVEEHSVLSGDILQYYLACSPRATNPFQQKLSGSHKALVEMQDVVAELLRNVPREHPATKDPLLRVQEVLNGTEVNLQHLTALVDCRSLHLDYVQALTGFCYDGVEGLIYLALFSFVTALMFSSIVCSIPHTWQQKRGPDDDGEEETAPGPRQAHDSLYRVHMPSLYSCGSSYGSEASIPAAAHTVSNAPVTEYMSQNANFQNPRCENTPLIGRESPPPSYTSSMRAKYLATSQPRPDSSGSGH
notes: mouse Tweety homolog 3 (mTTYH3), intact protein; also called EGFP-fused mTTYH3; mTTYH3-GFP; source: HEK 293 cells, transiently transfected, detergent-solubilised lysate; not shown: EGFP, C-terminal, kept
stoichiometry N [4]: 4 and 2

B7: FLAG-tagged mTTYH3 (natural protein, mouse, UniProt Q6P5F7 1-524, looked up)
chain: MAGVSYAAPWWVSLLHRLPHFDLRWEATSSQFRPEDADYQQALLLLGATALACLALDLLFLLFYSFWLCCRRRKTDEHLDADCCCTAWCVIITTLVCSAGIAVGFYGNGETSDGIHRATYSLRHANRTVAGVQDRVWDTAAALNRTAEPNLQSLERQLAGRQEPLRAVQRLQTLLGTLLGYTAAIPFWRNPGVSLEVLAEQVDLYDWYRWLGYLGLLLLDVIICLLVLVGLIRSSKGILVGVCLLGVLALVISWGALGLELAVSVGSSDFCVDPDTFVTKMVEEHSVLSGDILQYYLACSPRATNPFQQKLSGSHKALVEMQDVVAELLRNVPREHPATKDPLLRVQEVLNGTEVNLQHLTALVDCRSLHLDYVQALTGFCYDGVEGLIYLALFSFVTALMFSSIVCSIPHTWQQKRGPDDDGEEETAPGPRQAHDSLYRVHMPSLYSCGSSYGSEASIPAAAHTVSNAPVTEYMSQNANFQNPRCENTPLIGRESPPPSYTSSMRAKYLATSQPRPDSSGSGH
notes: mouse Tweety homolog 3 (mTTYH3), intact protein; so the FLAG is probably C-terminal; also called mouse Tweety homolog 3; source: HEK 293 cells (HEK293T), transiently transfected; cross-linked on the cells or in DDM lysate
stoichiometry N [2]: 2 | stoichiometry N [3]: 4

B8: mTTYH3-EGFP (Xenopus oocytes, pGH19) (natural protein, mouse, UniProt Q6P5F7 1-524, looked up)
chain: MAGVSYAAPWWVSLLHRLPHFDLRWEATSSQFRPEDADYQQALLLLGATALACLALDLLFLLFYSFWLCCRRRKTDEHLDADCCCTAWCVIITTLVCSAGIAVGFYGNGETSDGIHRATYSLRHANRTVAGVQDRVWDTAAALNRTAEPNLQSLERQLAGRQEPLRAVQRLQTLLGTLLGYTAAIPFWRNPGVSLEVLAEQVDLYDWYRWLGYLGLLLLDVIICLLVLVGLIRSSKGILVGVCLLGVLALVISWGALGLELAVSVGSSDFCVDPDTFVTKMVEEHSVLSGDILQYYLACSPRATNPFQQKLSGSHKALVEMQDVVAELLRNVPREHPATKDPLLRVQEVLNGTEVNLQHLTALVDCRSLHLDYVQALTGFCYDGVEGLIYLALFSFVTALMFSSIVCSIPHTWQQKRGPDDDGEEETAPGPRQAHDSLYRVHMPSLYSCGSSYGSEASIPAAAHTVSNAPVTEYMSQNANFQNPRCENTPLIGRESPPPSYTSSMRAKYLATSQPRPDSSGSGH
notes: mouse Tweety homolog 3 (mTTYH3), intact protein; also called EGFP-fused mTTYH3; source: Xenopus laevis oocytes injected with about 1 ng cRNA, at the plasma membrane; not shown: EGFP, C-terminal, kept
stoichiometry N [5]: 4
